Laboratory results from patent US20210102195A1 (TWIST BIOSCIENCE, published 2021).
Read-outs that look alike come from different tables or passages of the source.

Assays:
human TIGIT = target: T1, human TIGIT (human, UniProt Q495A1 22-141, limits assumed); assay: monovalent affinity of the hTIGIT IgGs; method not named in Example 14
T1 construct: also called hTIGIT
T1 sequence (looked up): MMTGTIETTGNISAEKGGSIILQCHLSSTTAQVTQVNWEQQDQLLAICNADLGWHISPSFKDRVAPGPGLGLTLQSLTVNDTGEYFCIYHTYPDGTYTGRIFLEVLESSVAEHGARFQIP

hCRTH2R [1] = target: T2, hCRTH2R (human, UniProt Q9Y5Y4 1-395); assay: flow cytometry (MFI) cell binding titration; number in grey print, taken with the upper grey curve; the sheet does not label the cell lines of the two curves
T2 construct: whole, on cells; h is read as human
T2 sequence (looked up): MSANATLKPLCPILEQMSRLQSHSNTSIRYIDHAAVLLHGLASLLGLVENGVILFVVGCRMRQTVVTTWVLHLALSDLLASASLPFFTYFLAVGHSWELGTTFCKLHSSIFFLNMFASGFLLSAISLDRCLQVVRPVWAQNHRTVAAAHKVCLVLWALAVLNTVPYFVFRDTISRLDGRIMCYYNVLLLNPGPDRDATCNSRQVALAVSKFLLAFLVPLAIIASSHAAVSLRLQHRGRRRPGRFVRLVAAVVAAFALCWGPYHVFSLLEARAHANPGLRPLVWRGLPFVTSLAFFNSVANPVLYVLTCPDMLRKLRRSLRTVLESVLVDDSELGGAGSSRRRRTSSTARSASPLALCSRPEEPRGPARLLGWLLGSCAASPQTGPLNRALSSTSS

hCRTH2R [2] = target: T2, hCRTH2R; assay: cell-based or functional assay
hCRTH2R [3] = target: T2, hCRTH2R; assay: flow cytometry (MFI) cell binding titration, upper grey curve; cell lines not labelled on the sheet
hCRTH2R [4] = target: T2, hCRTH2R; assay: flow cytometry (MFI) cell binding titration; number in grey print, taken with the upper grey curve; the sheet does not label the cell lines of the two curves; remark: listed apart in the source
hCRTH2R [5] = target: T2, hCRTH2R; assay: cell-based or functional assay; remark: listed apart in the source
hCRTH2R [6] = target: T2, hCRTH2R; assay: flow cytometry (MFI) cell binding titration; number in grey print, taken with the upper grey curve; the sheet does not label the cell lines of the two curves; remark: listed apart in the source
hCRTH2R [7] = target: T2, hCRTH2R; assay: cell-based or functional assay; remark: listed apart in the source
CRTH2R [8] = target: T3, CRTH2R (UniProt Q9Y5Y4 1-395, limits assumed); assay: flow cytometry (MFI), titration 0.05-100 nM on CRTH2R cells against parent cells; no legend on the panel: grey curve and grey EC50 taken as the CRTH2R cells, black (ND) as the parent cells
T3 construct: whole, on cells; also called Prostaglandin D2 receptor 2 (DP2 or CRTH2) receptor
T3 sequence (looked up): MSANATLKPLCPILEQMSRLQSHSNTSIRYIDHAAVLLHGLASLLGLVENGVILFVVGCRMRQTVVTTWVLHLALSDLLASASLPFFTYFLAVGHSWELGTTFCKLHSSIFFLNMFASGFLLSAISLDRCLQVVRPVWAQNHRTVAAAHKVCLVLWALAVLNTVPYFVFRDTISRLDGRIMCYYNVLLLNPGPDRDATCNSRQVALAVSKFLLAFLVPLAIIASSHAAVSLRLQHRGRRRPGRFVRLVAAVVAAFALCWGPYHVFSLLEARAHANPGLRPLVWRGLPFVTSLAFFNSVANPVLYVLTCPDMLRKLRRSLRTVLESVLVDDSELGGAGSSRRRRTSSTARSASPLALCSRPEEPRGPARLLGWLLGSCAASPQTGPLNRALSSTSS

CRTH2R [9] = target: T3, CRTH2R; assay: cell-based or functional assay
CRTH2R [10] = target: T3, CRTH2R; assay: cell-based or functional assay; remark: listed apart in the source
CRTH2R [11] = target: T3, CRTH2R; assay: flow cytometry (MFI), CHO CRTH2R-positive cells against parental CHO cells; same panel as in FIG. 15B; grey = CRTH2R cells, black = parental cells (no legend on the panel)
Protocol: (§1) Cell binding of anti-CRTH2R antibodies was determined by testing on CHO CRTH2R-positive cells (GFP+) and parental CHO cells (GFP−), comparing parental negative and target positive cells to rule out false-positives. Antibodies as listed in Table 14A were titrated starting at 100 nM (15 ug/mL) with 3-fold titrations, for a total of 8 points. Two antibodies (gPCR-51 and gPCR-52) were used as a positive control.

CRTH2R [12] = target: T3, CRTH2R; assay: flow cytometry (MFI), CHO CRTH2R-positive cells against parental CHO cells, 3-fold titration from 100 nM; grey = CRTH2R cells, black = parental cells (no legend on the panel)
Protocol: as §1

B1: TIGIT-55-13 (antibody, V domains shown)
VH: EVQLLESGGGLVQPGGSLRLSCAASGFTFSTYGMNWVRQAPGKGLEWVSTISGSGGSTYFADSVKGRFTISRDNSKNTLYLQMNSLRAEDTAVYYCARNSGWFMPFDYWGQGTLVTVSS
VL: DIQMTQSPSSLSASVGDRVTITCRTSQSISTYLNWYQQKPGKAPKLLIYATSRLQSGVPSRFSGSGSGTDFTLTISSLQPEDFATYYCQQSYTTPLTFGGGTKVEIK
notes: hTIGIT IgG
Kd (human TIGIT): 112 nM

B2: TIGIT-55-14 (antibody, V domains shown)
VH: EVQLLESGGGLVQPGGSLRLSCAASGFMFSRYAMSWVRQAPGKGLEWVSSISGSGGTTYYADSVKGRFTISRDNSKNTLYLQMNSLRAEDTAVYYCARRGSGWYIDSWGQGTLVTVSS
VL: DIQMTQSPSSLSASVGDRVTITCRASQSVSRYLNWYQQKPGKAPKLLIYGSSNLQSGVPSRFSGSGSGTDFTLTISSLQPEDFATYYCQESYSTPFTFGGGTKVEIK
notes: hTIGIT IgG
Kd (human TIGIT): 139 nM

B3: TIGIT-55-11 (antibody, V domains shown)
VH: EVQLLESGGGLVQPGGSLRLSCAASGFTFTNYGMSWVRQAPGKGLEWVSSISGSGSTTYYADSVKGRFTISRDNSKNTLYLQMNSLRAEDTAVYYCASVKRWGYYFNWWGQGTLVTVSS
VL: DIQMTQSPSSLSASVGDRVTITCRASQNINYYLNWYQQKPGKAPKLLIYGASSLQNGVPSRFSGSGSGTDFTLTISSLQPEDFATYYCQQSYITPYTGGGTKVEIK
notes: hTIGIT IgG
Kd (human TIGIT): 327 nM

B4: CRTH2-48-3 (antibody, V domains shown)
VH: EVQLVESGGGLVQAGGSLRLSCAASGSIFRINAMGWFRQAPGKEREGVAAINNFGTTKYADSVKGRFTISADNAKNTVYLQMNSLKPEDTAVYYCAAVRWGPRNDDRYDWGQGTQVTVSS
VL: DIQMTQSPSSLSASVGDRVTITCRASQSISSDLNWYQQKPGKAPKLLIYFASGLQSGVPSRFSGSGSGTDFTLTISSLQPEDFATYYCQQSYSSPLTFGGGTKVEIKR
notes: CRTH2R immunoglobulin (IgG); also called CRTH2-48-03
EC50 (hCRTH2R [1]): 0.579 nM
IC50 of PGD2 in the CRTH2 DiscoverX cAMP assay after 200nM IgG pre-incubation (+ no Ab: 0.2487), the axis reads PGD2 (hCRTH2R [2]): 0.356 nM
EC50 (read off the curve) (hCRTH2R [3]): ~2 nM

B5: CRTH2-48-21 (antibody, V domains shown)
VH: EVQLVESGGGLVQAGGSLRLSCAASGSFFSINAMGWFRQAPGKEREFVAGITRSGVSTSYADSVKGRFTISADNAKNTVYLQMNSLKPEDTAVYYCAAHRIVVGGTSVGDWRWGQGTQVTVSS
VL: DIQMTQSPSSLSASVGDRVTITCRTSQSISNYLNWYQQKPGKAPKLLIYATSSLESGVPSRFSGSGSGTDFTLTISSLQPEDFATYYCQQSYSTLLTFGGGTKVEIKR
notes: CRTH2R immunoglobulin (IgG)
EC50 (hCRTH2R [4]): 1.32 nM
IC50 of PGD2 in the CRTH2 DiscoverX cAMP assay after 200nM IgG pre-incubation (+ no Ab: 0.4559), the axis reads PGD2 (hCRTH2R [5]): 0.567 nM

B6: CRTH2-48-27 (antibody, V domains shown)
VH: EVQLVESGGGLVQAGGSLRLSCAASGSIFHINAMGWFRQAPGKEREGVAAINNFGTTKYADSVKGRFTISANNAKNTVYLQMNSLKPEDTAVYYCAAVRWGPRNDDRYDWGQGTLVTVSS
VL: DIQMTQSPSSLSASVGDRVTITCRASQSISRYLHWYQQKPGKAPKLLIYGASRLESGVPSRFSGSGSGTDFTLTISSLQPEDFATYYCRQSYSTPWTFGGGTKVEIKR
notes: CRTH2R immunoglobulin (IgG)
EC50 (hCRTH2R [6]): 0.859 nM
IC50 of PGD2 in the CRTH2 DiscoverX cAMP assay after 200nM IgG pre-incubation (+ no Ab: 0.4559), the axis reads PGD2 (hCRTH2R [7]): 0.407 nM

B7: CRTH2-41-51 (Fc fusion, not shown: a dimerising Fc or GST)
chain: EVQLVESGGGLVQPGGSLRLSCAASGGIFRFNAMGWFRQAPGKERELVAGISGSGGDTYYADSVKGRFTISADNSKNTAYLQMNSLKPEDTAVYYCAAFRGIMRPDWGQGTLVTVSS
EC50 (CRTH2R [8]): 0.181 nM
IC50 fold diff. of the PGD2 dose response in the CRTH2 DiscoverX allosteric cAMP assay (+ CRTH2-41-51-VHH against + no Ab) (CRTH2R [9]): 2.18 fold

B8: CRTH2-9 (antibody, V domains shown)
VH: QVQLVQSGAEVKKPGSSVKVSCKASGGTFSSYAISWVRQAPGQGLEWMGGIIPIFGTANYAQKFQGRVTITADESTSTAYMELSSLRSEDTAVYYCARDMYYDFWLGDQSTGSLIGAEVVPADDAFDIWGQGTLVTVSS
VL: QSVLTQPPSVSAAPGQKVTISCSGSTSNIGNNYVSWYQQLPGTAPKLLIYENDERPSGIPDRFSGSKSGTSATLGITGLQTGDEADYYCATWDTRLSAVVFGGGTKLTVL
notes: CRTH2R IgG
IC50 fold difference of the PGD2 dose response (cAMP) with 100 nM IgG (CRTH2R [10]): > 2 fold
antagonist activity in PGD2-induced cAMP assay at 33 nM IgG (CRTH2R [10]): > 20%
EC50 (CRTH2R [11]): 14.9 nM
EC50 (CRTH2R [12]): 14.9 nM

B9: TIGIT-55-07 (antibody, V domains shown)
VH: EVQLLESGGGLVQPGGSLRLSCAASGFTFSSYGMTWVRQAPGKGLEWVSAISGRGSSTYYADSVKGRFTISRDNSKNTLYLQMNSLRAEDTAVYYCARTPYRSGWADYWGQGTLVTVSS
VL: DIQMTQSPSSLSASVGDRVTITCRASQNIKTYLNWYQQKPGKAPKLLIYAASSLHTGVPSRFSGSGSGTDFTLTISSLQPEDFATYYCQQTYSIPQTFGGGTKVEIK
notes: hTIGIT IgG
Kd (human TIGIT): 231 nM

B10: TIGIT-55-12 (antibody, V domains shown)
VH: EVQLLESGGGLVQPGGSLRLSCAASGFTLSSYAMAWVRQAPGKGLEWVSTLSGSGGSTYYADSVKGRFTISRDNSKNTLYLQMNSLRAEDTAVYYCARVRVGAYDAFDIWGQGTLVTVSS
VL: DIQMTQSPYSLSASVGDRVTITCRASQSIRRYLNWYQQKPGKAPKLLIYRASTLQTGVPSRFSGSGSGTDFTLTISSLQPEDFATYYCQQTYSSPFTFGGGTKVEIK
notes: hTIGIT IgG
Kd (human TIGIT): 148 nM

B11: TIGIT-55-05 (antibody, V domains shown)
VH: EVQLLESGGGLVQPGGSLRLSCAASGFVFSSYAMNWVRQAPGKGLEWVSTVSGSGGTTYYADSVKGRFTISRDNSKNTLYLQMNSLRAEDTAVYYCARAPYSSSSWFDYWGQGTLVTVSS
VL: DIQMTQSPSSLSASVGDRVTITCRASQSVRSYLNWYQQKPGKAPKLLIYTATSLESGVPSRFSGSGSGTDFTLTISSLQPEDFATYYCQQSYGLPRTFGGGTKVEIK
notes: hTIGIT IgG
Kd (human TIGIT): 97.6 nM

B12: TIGIT-55-06 (antibody, V domains shown)
VH: EVQLLESGGGLVQPGGSLRLSCAASGFTFSRYTMNWVRQAPGKGLEWVSGISGSGGGAYYADSVKGRFTISRDNSKNTLYLQMNSLRAEDTAVYYCARNSYGPPRSFGMDVWGQGTLVTVSS
VL: DIQMTQSPSSLSASVGDRVTITCRASQSISKYLNWYQQKPGKAPKLLIYGASSLRGGVPSRFSGSGSGTDFTLTISSLQPEDFATYYCQQSYRPPLTFGGGTKVEIK
notes: hTIGIT IgG
Kd (human TIGIT): 153 nM

B13: TIGIT-55-08 (antibody, V domains shown)
VH: EVQLLESGGGLVQPGGSLRLSCAASGFMFSDYAMSWVRQAPGKGLEWVSGISGSGGYTYYADSVKGRFTISRDNSKNTLYLQMNSLRAEDTAVYYCTRSWYYYYGMDVWGQGTLVTVSS
VL: DIQMTQSPSSLSASVGDRVTITCRAGQSIRSYLNWYQQKPGKAPKLLIYASSNLQSGVPSRFSGSGSGTDFTLTISSLQPEDFATYYCQQSYSTPLLTFGGGTKVEIK
notes: hTIGIT IgG
Kd (human TIGIT): 113 nM

B14: CRTH2-27 (antibody, V domains shown)
VH: QVQLVESGGGVVQPGRSLRLSCAASGFTFDNYGMHWVRQAPGKGLEWVAVISYEGSNKKYADSVKGRFTISRDNSKNTLYLQMNSLRAEDTAVYYCARDMYYDFGSIYGEDVVGELPEVVPADDAFDIWGQGTLVTVSS
VL: QSALTQPASVSGSPGQSITISCTGTSNDVGAYNFVSWYQQHPGKAPKLMIYDISNRPSGVSNRFSGSKSGNTASLTISGLQAEDEADYYCSSYTRSNTRVFGGGTKLTVL
notes: CRTH2R IgG
IC50 fold difference of the PGD2 dose response (cAMP) with 100 nM IgG (CRTH2R [10]): > 2 fold
EC50 (CRTH2R [11]): 42 nM
EC50 (CRTH2R [12]): 42 nM
